From patent US20110086029A1 (University of California, published 2011)

T1: murine N-Cadherin (murine, UniProt P15116 160-724, limits assumed)
T1 construct: The assay used to show cross-reactivity is not described
T1 sequence (looked up): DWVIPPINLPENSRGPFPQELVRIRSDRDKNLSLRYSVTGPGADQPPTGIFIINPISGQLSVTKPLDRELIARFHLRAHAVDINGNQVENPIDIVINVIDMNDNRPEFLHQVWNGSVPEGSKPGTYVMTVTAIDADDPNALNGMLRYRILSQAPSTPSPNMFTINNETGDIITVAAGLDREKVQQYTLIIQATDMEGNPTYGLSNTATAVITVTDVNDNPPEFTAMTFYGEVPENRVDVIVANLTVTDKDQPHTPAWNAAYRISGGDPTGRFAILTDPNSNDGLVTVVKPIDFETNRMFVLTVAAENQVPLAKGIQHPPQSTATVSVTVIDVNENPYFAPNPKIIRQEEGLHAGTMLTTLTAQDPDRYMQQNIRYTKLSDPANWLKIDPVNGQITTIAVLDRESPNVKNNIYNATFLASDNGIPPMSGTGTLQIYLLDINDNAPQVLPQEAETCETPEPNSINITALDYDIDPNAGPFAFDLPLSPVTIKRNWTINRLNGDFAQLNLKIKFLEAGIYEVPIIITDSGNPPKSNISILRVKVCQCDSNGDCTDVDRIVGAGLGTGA

B1: N-Cadherin antibody EC4 (monoclonal antibody produced by mouse hybridoma ATCC Accession No. PTA-9388) (antibody, V domains shown)
VH: QVKLQQSGAELARPGASVKLSCKASGYTFTSYWMQWVKQRPGQGLEWIGAIYPGDGETTYTQKFKGKATLTADKSSSTAYMQLSSLASEDSAVYYCAKGDGYWAMDYWGQGTSVTVSS
VL: DIVMTQTPLSLPVSLGDQASISCRSSQSLVHSNGNTYLHWYLQKPGQSPKLLIYKVSNRFSGVPDRFSGSGSGTDFTLKISRVEAEDLGVYFCSQSTHVPLTFGAGTKLELK
notes: Mouse hybridoma monoclonal antibody
B2: N-Cadherin antibody 1H7 (monoclonal antibody produced by mouse hybridoma ATCC Accession No. PTA-9387) (antibody, V domains shown)
VH: QVQLQQSGAELVKPGASVKLSCKASGFTFTDYLIQWVKQRSGQGLEWIGWFYPGSGSIKYNEKFKDKATLTADKSSNTVYMEISRLTSEDSAVYFCARRGDWGGFFDYWGQGTTLTVSS
VL: DIVLTQSPAIMSASLGERVTMTCTASSSVSSSYLHWYQQKPGSSPKLWIFSTSNLASGVPDRFSGSGSGTSYSLTINSMEAEDAATYYCHQYHRSLTFGAGTKLELK
notes: as for B1

Biological target: T1, murine N-Cadherin
Assay: assay not described

Row | binding result | Binder
1 | binds | B1
2 | binds | B2
